# Test results as given in patent publication US20250163182A1 (Janssen / Centocor, published 2025).
# T1: human ENPP3 (human, UniProt O14638 46-875, limits assumed)
# T1 construct: neither the construct nor the method is stated; also called ectonucleotide pyrophosphatase/phosphodiesterase family member 3
# T1 sequence (looked up): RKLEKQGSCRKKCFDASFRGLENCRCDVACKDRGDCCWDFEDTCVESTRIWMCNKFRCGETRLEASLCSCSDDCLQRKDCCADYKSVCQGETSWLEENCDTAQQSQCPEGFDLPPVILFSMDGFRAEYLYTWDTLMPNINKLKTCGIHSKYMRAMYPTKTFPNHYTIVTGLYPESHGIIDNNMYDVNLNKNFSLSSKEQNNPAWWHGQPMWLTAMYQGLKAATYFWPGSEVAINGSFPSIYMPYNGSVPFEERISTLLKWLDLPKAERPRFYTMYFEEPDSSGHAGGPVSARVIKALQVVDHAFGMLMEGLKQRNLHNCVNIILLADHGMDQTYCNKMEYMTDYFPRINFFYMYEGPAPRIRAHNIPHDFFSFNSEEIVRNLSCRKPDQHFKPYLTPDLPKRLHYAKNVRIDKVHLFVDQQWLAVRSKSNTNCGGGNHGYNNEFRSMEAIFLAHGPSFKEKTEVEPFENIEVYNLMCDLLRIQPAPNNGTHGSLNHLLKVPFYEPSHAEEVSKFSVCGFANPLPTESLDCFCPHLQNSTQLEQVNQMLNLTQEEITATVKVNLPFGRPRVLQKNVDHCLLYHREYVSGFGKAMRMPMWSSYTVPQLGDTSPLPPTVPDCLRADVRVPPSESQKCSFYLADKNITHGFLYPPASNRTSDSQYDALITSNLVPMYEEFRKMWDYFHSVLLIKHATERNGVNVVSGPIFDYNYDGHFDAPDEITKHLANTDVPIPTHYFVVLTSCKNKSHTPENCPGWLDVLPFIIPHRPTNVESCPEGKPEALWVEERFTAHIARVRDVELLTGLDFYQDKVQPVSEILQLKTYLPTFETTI
# T2: cynomolgus monkey ENPP3 (cynomolgus monkey, UniProt A0A2K5TKP4 46-874)
# T2 construct: also called cyno ENPP3
# T2 sequence: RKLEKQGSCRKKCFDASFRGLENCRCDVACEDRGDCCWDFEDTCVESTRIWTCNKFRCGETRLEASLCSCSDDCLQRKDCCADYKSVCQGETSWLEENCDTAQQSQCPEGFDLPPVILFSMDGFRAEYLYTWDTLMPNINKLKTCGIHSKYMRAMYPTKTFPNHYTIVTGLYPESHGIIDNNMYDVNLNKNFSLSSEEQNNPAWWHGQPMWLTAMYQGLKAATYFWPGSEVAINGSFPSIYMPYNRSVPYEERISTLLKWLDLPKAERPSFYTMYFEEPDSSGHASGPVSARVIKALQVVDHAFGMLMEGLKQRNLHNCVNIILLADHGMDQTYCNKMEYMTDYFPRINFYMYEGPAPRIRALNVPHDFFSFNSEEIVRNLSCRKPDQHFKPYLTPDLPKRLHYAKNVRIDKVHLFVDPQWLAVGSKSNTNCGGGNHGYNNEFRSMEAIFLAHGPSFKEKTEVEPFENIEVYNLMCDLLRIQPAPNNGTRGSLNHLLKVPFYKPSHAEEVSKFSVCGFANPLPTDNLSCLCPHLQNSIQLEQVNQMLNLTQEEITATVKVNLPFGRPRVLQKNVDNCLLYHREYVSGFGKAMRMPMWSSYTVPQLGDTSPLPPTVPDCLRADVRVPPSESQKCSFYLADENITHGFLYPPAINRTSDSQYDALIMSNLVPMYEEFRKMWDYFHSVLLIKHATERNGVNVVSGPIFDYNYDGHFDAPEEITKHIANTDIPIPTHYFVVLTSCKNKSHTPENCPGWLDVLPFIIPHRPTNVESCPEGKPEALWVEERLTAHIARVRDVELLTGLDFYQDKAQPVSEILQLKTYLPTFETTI
# T3: human ENPP3 on cells (human, UniProt O14638 1-875)
# T3 construct: whole, on cells; also called ENPP3 on A704, VMRCRCW, HepG2, TUHR4TKB, TUHR10TKB; CHO-K1 ENPP3 OE
# T3 sequence (looked up): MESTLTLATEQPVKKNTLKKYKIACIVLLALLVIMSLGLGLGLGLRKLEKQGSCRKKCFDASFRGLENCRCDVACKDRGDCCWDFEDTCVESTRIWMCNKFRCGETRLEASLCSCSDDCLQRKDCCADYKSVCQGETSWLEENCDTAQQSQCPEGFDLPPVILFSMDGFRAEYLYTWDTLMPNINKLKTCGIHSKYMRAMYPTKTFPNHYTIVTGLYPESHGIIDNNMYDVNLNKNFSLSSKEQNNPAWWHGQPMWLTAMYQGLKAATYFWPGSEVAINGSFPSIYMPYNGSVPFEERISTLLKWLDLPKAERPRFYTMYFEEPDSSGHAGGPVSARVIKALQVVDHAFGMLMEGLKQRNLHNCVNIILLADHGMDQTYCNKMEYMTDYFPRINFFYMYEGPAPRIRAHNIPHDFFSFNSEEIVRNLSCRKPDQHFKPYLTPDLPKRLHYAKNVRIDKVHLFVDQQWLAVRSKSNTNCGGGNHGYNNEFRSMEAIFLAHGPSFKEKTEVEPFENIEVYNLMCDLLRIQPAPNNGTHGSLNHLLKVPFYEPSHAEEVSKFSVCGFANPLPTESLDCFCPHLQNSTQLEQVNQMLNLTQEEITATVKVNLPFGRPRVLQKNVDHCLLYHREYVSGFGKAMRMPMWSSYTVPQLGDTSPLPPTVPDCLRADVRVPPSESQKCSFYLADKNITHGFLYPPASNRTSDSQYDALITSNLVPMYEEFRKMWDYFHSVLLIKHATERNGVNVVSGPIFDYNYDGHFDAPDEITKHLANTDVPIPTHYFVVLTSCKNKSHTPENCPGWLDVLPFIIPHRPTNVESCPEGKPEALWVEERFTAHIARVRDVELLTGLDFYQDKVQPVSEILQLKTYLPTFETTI
# T4: ENPP1 on CHOK1 cells (UniProt P22413 1-925, limits assumed)
# T4 construct: whole, on cells; also called ectonucleotide pyrophosphatase/phosphodiesterase family member 1; CHO ENPP1 OE
# T4 sequence (looked up): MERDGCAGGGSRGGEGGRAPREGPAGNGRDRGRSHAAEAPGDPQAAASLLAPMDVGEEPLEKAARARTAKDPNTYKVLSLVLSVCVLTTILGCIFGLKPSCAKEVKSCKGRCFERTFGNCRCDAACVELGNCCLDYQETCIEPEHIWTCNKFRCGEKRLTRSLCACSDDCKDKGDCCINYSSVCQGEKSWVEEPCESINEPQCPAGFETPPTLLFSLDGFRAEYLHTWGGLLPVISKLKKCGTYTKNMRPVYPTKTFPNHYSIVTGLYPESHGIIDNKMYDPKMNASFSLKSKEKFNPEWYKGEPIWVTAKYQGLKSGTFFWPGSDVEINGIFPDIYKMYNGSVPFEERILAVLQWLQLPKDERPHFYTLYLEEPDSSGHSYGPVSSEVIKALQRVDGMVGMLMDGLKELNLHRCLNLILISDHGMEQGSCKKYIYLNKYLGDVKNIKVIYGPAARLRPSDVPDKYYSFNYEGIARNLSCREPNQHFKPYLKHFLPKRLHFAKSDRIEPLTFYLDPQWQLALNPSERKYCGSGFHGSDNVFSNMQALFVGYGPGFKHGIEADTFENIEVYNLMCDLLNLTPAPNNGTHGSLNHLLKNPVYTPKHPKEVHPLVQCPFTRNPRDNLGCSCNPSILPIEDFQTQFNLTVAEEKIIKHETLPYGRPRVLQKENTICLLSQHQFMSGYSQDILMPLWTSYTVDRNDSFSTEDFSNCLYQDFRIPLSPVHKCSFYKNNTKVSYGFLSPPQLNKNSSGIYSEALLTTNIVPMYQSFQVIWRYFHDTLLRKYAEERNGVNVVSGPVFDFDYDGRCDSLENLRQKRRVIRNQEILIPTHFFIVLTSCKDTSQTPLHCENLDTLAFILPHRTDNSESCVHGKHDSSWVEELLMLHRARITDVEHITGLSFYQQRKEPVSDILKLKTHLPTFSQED
# How the values were obtained:
# human ENPP3 = target: T1, human ENPP3; test: binding affinity to human ENPP3; method not stated
# cynomolgus monkey ENPP3 = target: T2, cynomolgus monkey ENPP3; test: binding affinity to cyno ENPP3; method not stated
# human ENPP3 on cells = target: T3, human ENPP3 on cells; test: flow cytometry on CHO cells overexpressing ENPP3
# Method: To evaluate the specificity of binders to ENPP3 compared to other ENPP family members, cell binding was assessed on CHOK1 cells overexpressing ENPP1, ENPP2, or ENPP3 (FIG. 9).
# ENPP1 on CHOK1 cells = target: T4, ENPP1 on CHOK1 cells; test: flow cytometry on CHO cells overexpressing ENPP1
# ENPP2 on CHOK1 cells = ENPP2 on CHOK1 cells (UniProt Q13822 36-863); test: flow cytometry on CHO cells overexpressing ENPP2
Binder,Kd (human ENPP3),Kd (cynomolgus monkey ENPP3),EC50 (read off the curve) (human ENPP3 on cells),binding result (ENPP1 on CHOK1 cells),binding result (ENPP2 on CHOK1 cells)
"NPP3B61 (antibody, V domains shown, mAb from Ablexis Kappa mice) VH: QVQLQESGPGLVRPSETLSLTCTVSGGSISSYYWSWIRQPAGKGLEWIGRIYTTGRIYTSGYTNYNPSLKSRVTMSIDTSKIQFSLRLNSVTAADTAVYWCARGGELFTDGFDIWGQGTMVTVSS VL: EIVMTQSPGTLSLSPGERATLSCRASQSVISTYLAWYQQNPGQAPRLLIYGASSRATGIPDRFSGSGSGTDFTLTISRLEPEDFAVYYCQQYDTSPITFGQGTRLEIK",0.443 nM,109 nM,,,
"NPP3B62 (antibody, V domains shown, mAb from Ablexis Kappa mice) VH: QVQLQESGPGLVRPSETLSLTCTVSGGSISSYYWSWIRQPAGKGLEWIGRIYTTGRIYTSGYTNYNPSLKSRVTMSIDTSKIQFSLRLNSVTAADTAVYWCARGGELFTDGFDIWGQGTMVTVSS VL: EIVMTQSPGTLSLSPGERATLSCRASQSVISTYLAWYQQNPGQAPRLLIYGASSRATGIPDRFSGSGSGTDFTLTISRLEPEDFVVYYCQQYDTSPITFGQGTRLEIK",0.258 nM,12 nM,,,
"NPP3B101 (antibody, V domains shown, mAb from Ablexis Kappa mice) VH: QVQLQESGPGLVKTSETLSLTCTVSGGSISSHYWSWIRQPPGKGLEWIGNIFYSGSTNYNPSLKSRVTMSVDTSKNHFSLKLISVTTADTAIYYCARHDHVWFDPWGQGTLVTVSS VL: EIVLTQSPGTLSVFPGERATLSCRASQSVSRNLVWYQQKPGQAPRLLIYGASTRATGIPDRFSGSGSGTEFTLTISSLQSEDFAVYYCQQYNNWPPWTFGQGTKVEIK",0.193 nM,9.58 nM,,,
"NPP3B232 (bispecific antibody, IgG1, Fab-IgG1 (hole) plus scFv-Fc in VL-linker-VH-Fc orientation) VH: QVQLQESGPGLVKPSETLSLTCTVSGGSISNYYWSWIRQPAGKGLEWIGRIYASGSTNYNPSLKSRVTMSVDTSKNQFSLRLRSVTATDTAVYYCAREGYSSTLYDNAFDFWGQGTMVTVSS VL: DIQMTQSPSSVSASVGGRVTITCRASQGISTWLAWYQQKPGKAPKLLIYAASSLQSGVPSRFSGSGSGTDFTLTISSLQPEDFATYYCQQANSFPLTFGGGTKVEIK scFv: EIVLTQSPATLSASPGERVTLSCSASSSVSYMNWYQQKPGQAPRRWIYDSSKLASGVPARFSGSGSGRDYTLTISSLEPEDFAVYYCQQWSRNPPTFGGGTKVEIKGGSEGKSSGSGSESKSTGGSQVQLVQSGAEVKKPGSSVKVSCKASGYTFTRSTMHWVKQAPGQGLEWIGYINPSSAYTNYNQKFQGRVTLTADKSTSTAYMELSSLRSEDTAVYYCASPQVHYDYAGFPYWGQGTLVTVSS",,,~0.5 µg/mL,no binding (tested: Log(ug/mL) about 1.1 (about 12 ug/mL)),no binding (tested: Log(ug/mL) about 1.1 (about 12 ug/mL))
"NPP3B239 (bispecific antibody, IgG1, Fab-IgG1 (hole) plus scFv-Fc in VL-linker-VH-Fc orientation; also called NPP3B239.003) VH: EVQLVESGGGLVKPGGSLRLSCAASGFIFSDYSMNWVRQAPGKGLEWVSSISSGSSYIYYADSLKGRFTISRDNAKNSLYLQMSSLRAEDTAVYYCVRGLDYFDYWGQGALVTVSS VL: DIQMTQSPSFLSASVGDRVTITCRASQDISNYLAWYQQKPGRAPKLLIYVASTLQSGVPSRFSGSGSGTEFTLTISSLQPEDFATYYCQQLNSYPRTFGQGTKVEIK scFv: EIVLTQSPATLSASPGERVTLSCSASSSVSYMNWYQQKPGQAPRRWIYDSSKLASGVPARFSGSGSGRDYTLTISSLEPEDFAVYYCQQWSRNPPTFGGGTKVEIKGGSEGKSSGSGSESKSTGGSQVQLVQSGAEVKKPGSSVKVSCKASGYTFTRSTMHWVKQAPGQGLEWIGYINPSSAYTNYNQKFQGRVTLTADKSTSTAYMELSSLRSEDTAVYYCASPQVHYDYAGFPYWGQGTLVTVSS",,,~1 µg/mL,no binding (tested: Log(ug/mL) about 1.1 (about 12 ug/mL)),no binding (tested: Log(ug/mL) about 1.1 (about 12 ug/mL))
